Laboratory results reported in the nanobody polyreactivity screen of Harvey et al. (2022).

Assay: yeast display, Sf9 membrane polyspecificity reagent, FACS + sequencing; frameworks hold sequencing errors
Procedure, shortened: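 Genes from sorted yeast were amplified by colony PCR, read by MiSeq 2 × 250 sequencing and filtered on CDR length. These cells carried a synthetic nanobody library in Saccharomyces cerevisiae BJ5465 and were sorted by FACS into low and high (top ~1%) gates on anti-HA and streptavidin fluorescence. Polyreactivity is labelled according to the gate of origin.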

| Sequence | polyreactivity (PSR sort gate) |
| --- | --- |
| QVQLVESGGGLVQAGGSLRLSCAASGSTFYNNAMGWYRPAPGKERELVAAISSGGGTYYADSVKGRFTISRDNAKNTVYLQMNSLKPEDTAVYYCAAYFANTTHWGRIKRYDYWGQGTQVTVSS | low polyreactivity |
| QGQLVESGGGLVQAGGSLRLSCAASVRTFYKYAMGWYRQAPGKERELVATITSGGSTNYADSVKGRFTISRDNAKNTVYLQMNSLKPEDTAVYYCAARGHIYKIRDPYWTHDYWGQGTQVTVSS | low polyreactivity |
| QVQLVESGGGIVQAGGSLRLSCAASGSIFWVNVMGWYRQAPGKEREFVAAITRSGGSTYYADSVKGRFTISRDNAKNTVYLQMKSLKPEDTAVYYCNRRGRRGYDYWGQGTQVTVSS | high polyreactivity |
| QVQLVESGGGLVQAGGSLRLSCAASGSIFDHTNAMGSYRQAPGKERELVAAITSGSSTNYADSVKGRFTISRDNAKKTVDLQMNSLKPEDTAVYYCNADRFHSGIFDYWGQGTQVTVSS | low polyreactivity |
| QVQLVESGGVLVQAGGSLRLSCAASGSIFGVYTMGWYRQAPGKERELVAAISGSGGSTYYADSVKGRFTISRDNAMNTVYLQMNSLKPEDTAVYYCATRFPKIPPYDSWGQGTQVTVSS | low polyreactivity |
| QVQLQESGGGLVQAGGSLRPSCAASGSISDGVPMGWYRQAPGEQRELVATTVLGATTNYADSVKGRFTISRGNAKNTVYLLMNSLKPEETAVYYCAARLRYDKGFSYWGQGTQVTVSS | low polyreactivity |
| QVQLVESGGGLVQAGGSLRLSCAASGFTFEENAMGWYRQAPGINYSGASTYYADSVKGRFTISRDKAKNTVYLQMNSLKPDDTAVYYCAADVVAQMNYWGQGTQVTVSS | low polyreactivity |
| QVQLVESGGGLVQAGGSLRLSCAASGRIFYRNAMGWYRQAPGKERELVAAITSGGSTYYADSVKGRFTISRDNAKNTVYLQMNSLKPEDTAVYYCAAAYQRWFNRRDYWGQGTQVTVSS | high polyreactivity |
| QVQLVESGGGLVQAGGSLRLSCAASGLTFAGYAMGWYRQAPGKERELVAAITYSTGRTYYADSVKGRFTISRDNAKTTVYFQMNSLKPEDTAVYYCAALLRGQDRTMDYWGQGTQVTVSS | high polyreactivity |
| QVQLVESWGGLVQAGGSLRLSCAASGRIFYDYAMGWYRQAPGKERELVAAISKGGGSTYYADSVKGRFTISRDNAKKTVYLQMNSLKAEDTAVYFCAASTSHTTDTRYDYWGQGTQVTVSS | low polyreactivity |
| QVQLVESGGGFDQAGGSLRLSCAASGSIFSGYAMGWYRQAPGKETELVAAINWSGGRTYYADSVKGRFTISRDNEKNTVYLQMKSLKPEDTAVYYCAAAGARSIYRMDYWGQGTQVTVSS | high polyreactivity |
| QVQLVESGGGLVQAGGSLRLSCAASGLTFYTYAMGWYRQAPGKERELVAAISSGGSTNYADSVKGRFTISRDNAKNTVYLQMNSLKPEDTAVYYCAADPSYYTYFSFDLSESDYWGLGTQVTVSS | low polyreactivity |
| QVQLVESGGGLVQAGGSLRLSCAASGRIFLRNAMGWYRQAPGNERELVATITSRGGSTYYADSVKGRFTISRDNAKNTVYLQMNSLKPEDTAVYYSAADPSRYRSFGYVYGGYYYWGQGTQVTVSS | low polyreactivity |
| QVQLVESGGGLVQAGGSLRLSCAASGSIFEGYSMGWYRQAPAKERELVARITSDDDSTYYADSVKGRFTISRDNAKNTVYLQMNSLKPEDSAVYYCNADYYWTSLAMDSWGQGTQVTVSS | low polyreactivity |
| QVQLVESGGGLVQAGGSLRLSCAPSGRIFRYNAMGWYRQAPGKERELVAAITSGGSTNYADSVKGRFTISRDNAKNTVYLQMNRLKPEDTAVYYCAVTGYRPYAYRRRYPYDYWGQGTQVTVSS | high polyreactivity |
| QVQLVDSGGGLVQAGGSLRLGCAASGRIFAGYGMGWYRQAPGKERELVATITSGGSTYYADSLKGRFTISRDNAKNTVYLQMNSLKPEDTAVYYCNRYFSEALLHGSSYNRYYYWGQGTQVSVSS | low polyreactivity |

| Sequence | polyreactivity (PSR sort gate) |
| --- | --- |
| QVQLVESGGGLVQAGGSLRLSCAASGLTLVTIGMGWYSQAPAKERELVAAIDSTGGRTYYADSVKGRFTISRDNAKKTVYLQMTSLKPEDTAVSYCNRRWYARAAYWGQGTQVTVSS | high polyreactivity |
| QVQLVESGGGLVQAGGSLRLSCAASGSIFYWYAMGWYRQAPGKERELVAAISSGGSTNYADSVKGRFTISRDNAKNTVYLQMNSLKPEDTAVYYCNADIRSFYWEYYTGLDSWGQVTQVTVSS | low polyreactivity |
| QVQLVESGGGLVQAGGSLRLSCAASGFIFQSYAMGWYRQAPGKERELVASISASGGSTYYADSVKGRFTISRDNAKNTVYLQMNSLKPEDTAVYYCAAGYWSYWSLRMDYWGQGTQVTVSS | high polyreactivity |
| QVQLVESGGGLVQAGGSLRLICAASGFIFDYNTMGWYRPAPGKERELVAGITSGGSTNYADSVKGRFTISRDNAKNTVYLQMNSLKPEDTAVYYCATVDDEYYGYDYWGQGSQVTVSS | low polyreactivity |
| QVQLVESGGGLDQAGGRLRLSCAASGFTFNYNAMGWYRQATGKERELVAAISRSGGRTYYADSVKGRFTISRDNAKNTVYLQMNSLKPEDTAVYYCAADSGTNGYDYWGQGTQVTVSS | high polyreactivity |
| QVQLVESGGGLVQAGGSLRLSCAASGRTQAFHAMGWYRQAPGKERELVAVIRNGTSTNYADSVKGRFTISRDNAKNTVYLQMNSLKPEDTAVYYCNVPYYLPSYLSGYDYWGQGTQVTVSS | low polyreactivity |
| QVQLVESGGGLVQAGGSLRLSCAASGRIFRYYAMGWYRQAPGKERELVAAISSGGSTNYADSVKGRFTISRDNAKNTVYIQMNSLKPEDTPVYYCAAEWYSYGARSSYGGSRNDYWGQGTQVTVSS | low polyreactivity |
| QVQLVESGGGLVQDGGSLRLSCAASGRIFGYYAMGGYRQAPGKERELVASINGGGSTNYADSVKGRFTISRDNAKTTVYLQMNSLKPEDTAVYDCAAAQWAYWLLYNYWGHGTQVTVSS | low polyreactivity |
| QVQLVESGGRLVQAGCSLRLSCAASGFIFRLYAKGWYRQAPGKERELVAAISDDASTNYADSVKGRFTISRDNAKNTVYLQMNSLKPEDTAVYYCAAAVKRGYAQSFISDGYGYWGEGTQVTVSS | low polyreactivity |
| QVQLVESGGGLVQAGGSLRLSCAASGRIFGRTAMGWYRKAPGKERELVAAISWRGGNTYYADSVKGRFTISRDNAKNTVYLQMNSLKPEDTAVYYCNTVQYRNEMGYWGQGTQVTVSS | high polyreactivity |
| QVQLVESGGGLVQAGGSLRLSCAASGIIFWAYAMGWYRQAPGKERELVAAISWSGGRTYYADSVKGRFTISRDNAKNTVYLQMNSLKPEDTAVYYCAAYRFLLYDYWGQGTQVTVSS | high polyreactivity |
| QVQLVESGGGLVQAGGSLRLSCAASGFTFRGYAMGWYRQAPGKERELVAAISGSGGRTHYADSVKGRFTISRDNAKNTVYLQMNSLKPEDTAVYYCNAVPYSRPLGNNYWGQGTQVTVSS | high polyreactivity |
| QVQLVESGGGLVQAGGSLRLSCAASGSTFVIYAMGWYRQAPGKERELVAAITISGGRTYYADSVKGRFTISRDKAKNTVYLQMNSLKPEDTAVYYCAATVVSTYPYGYGSSFVRDDYWGQGTQVTVSS | low polyreactivity |
| QVQLVESGGGLVQAGGSLRLSCAASGRTFTQYAMGWYRQAPGKERELVAAIDYRGSRTYYADSVKGRFTISRDNAKNTVYLQMNSLKPEDTAFYYCNTVHRFGTYDYWGQGTQVTVSS | high polyreactivity |
| QVQLVESGGGLVQAGGSLPLSCAASGLTLYGNAMGWYRQAPAKEREMVADISLSGGRTFYADSVKGRFTITRDNAKNTVYLQMNSLKPEDTAVYYCAAVCRTGWYYEYYHWGQGSQVTVSS | low polyreactivity |
| QVQLVESAGGLVQAGGSLRLICAASGRIFYLNAMGWYRQAPGKESELVAAINTSCGSTYADSVKWRFTISRDNAKNTVYLQMNSLKPEDTAVYYCNAYLAEVLPLGKGRLYDYWGQGTQVTVSS | low polyreactivity |
